In US11529425B2, “Immunoconjugates comprising signal regulatory protein alpha” (DINGFU BIOTARGET CO., LTD., priority 2017, dated 2022):

Legend:
[1] = biological target: T1, CD47-muFc (Homo sapiens, UniProt Q08722); assay: Binding kinetics by bio-layer inferometry (BLI), Octet K2
T1 construct: made in house; host or cells: transiently transfected FreeStyle 293F cells (HEK293)
Text: The amino acid sequence of the human CD47 extracellular domain (i.e., the 19th residue to the 141th residue in Q08722) was obtained according to the amino acid sequence of human CD47 (Q08722) in the protein database Uniprot. According to the amino acid sequence of the constant region of murine immunoglobulin gamma1 (P01868) in the protein database Uniprot, the amino acid sequence of muFc (i.e., the 112th residue to the 213th residue in P01868) was obtained. The DNAworks Online Tool (helixweb.nih.gov) was used to design the corresponding coding DNA sequence to obtain the CD47-muFc fusion protein gene, and the DNA fragment was obtained by artificial synthesis. The synthetic gene sequences were cloned into commercial vector pcDNA4/myc-HisA (Invitrogen, V863-20) by Fermentas HindIII and EcoRI. The recombinant plasmids were then sequenced for confirmation, thereby obtaining the plasmid DNA of pcDNA4-CD47-muFc. The amino acid sequences of CD47-muFc is as set forth in SEQ ID NO: 61, and the polynucleotide sequence encoding it is as set forth in SEQ ID NO: 62.
Binding kinetics of a hu56di-SIRPα immunoconjugate or control antibodies (SIRPα-Fc IgG1 and AB6.12 IgG1) were determined by the bio-layer inferometry (BLI) method using Octet K2 system (FortéBio). All experiments were performed at 25° C. under a PBS buffer containing 0.5% BSA and 0.5% Tween 20, pH 7.2. CD47-muFc was immobilized onto AHC Biosensors, which were subsequently used in association (with hu56di-SIRPα, SIRPα-Fc IgG1 or AB6.12 IgG1) and dissociation measurements each performed for a time window of 40 seconds and 300 seconds, respectively. After the above steps, the subtracted binding interference data were applied to the calculations of binding constants using the FortéBio analysis software provided with the instrument.

[2] = system: A375 cell (expressing CD47) and A375-PD-L1 tumor cells (expressing both CD47 and PD-L1); assay: Tumor binding in excess erythrocyte antigen sink, flow cytometry; conditions: 15-fold excess of RBCs, FIG. 6a
Experimental: An important concern about CD47-based therapeutics is the expression of the target on the surface of erythrocyte, which has the potential to act as a large antigen sink and cause hematological toxicity. […] The binding of hu56di-SIRPα to tumor cell in excess human erythrocytes antigen sink was therefore assessed by flow cytometry. A375 cell (expressing CD47) and A375-PD-L1 tumor cells (expressing both CD47 and PD-L1) were mixed with a 15-fold excess of RBCs, and then incubated with 20 μg/ml hu56di-SIRPα, SIRPα-Fc IgG1 or AB6.12 IgG1 or isotype control (human IgG1) at 4° C. for 30 min. Then the cells were washed to remove unbound proteins and incubated with an anti-hlgG Fc gamma specific PE antibody at 4° C. for 20 min. The cells were analyzed by flow cytometry (Life Technology). The gate of erythrocytes was assessed by anti-human CD235a (eBiosciences Cat #12-9987-80).
Then the cells were washed to remove unbound proteins and incubated with an anti-hlgG Fc gamma specific PE antibody at 4° C. for 20 min. The cells were analyzed by flow cytometry (Life Technology). The gate of erythrocytes was assessed by anti-human CD235a (eBiosciences Cat #12-9987-80).

[3] = system: human erythrocytes (RBC); assay: RBC binding in tumor cell / 15-fold excess RBC mix, flow cytometry; conditions: tumor cells mixed with 15-fold excess of RBCs, 20 μg/ml, FIG. 6a-6e
[4] = system: RBC; assay: Binding to fresh RBC diluted 2500 times, flow cytometry; conditions: 20 μg ml^−1, FIG. 6f
Experimental: Similarly, fresh RBC cell was diluted 2500 times, then it was incubated with 20 μg ml^−1 isotype control (human IgG1), hu56di-SIRPα, hu56di-CV1, SIRPα-Fc IgG1 and AB6.12 IgG1, respectively. The results were shown in FIG. 6f, in which serial numbers of 1, 2, 3, 4 and 5 correspond to isotype control, hu56di-SIRPα, hu56di-CV1, SIRPα-Fc IgG1 and AB6.12 IgG1.

[5] = reported in treated animal; cited from earlier work
[6] = reported after being injected into human; cited from earlier work
[7] = system: mouse RBCs; assay: Mouse RBC binding, MC38 tumor cells mixed with 15-fold excess of mouse RBCs; conditions: MC38 cells with 15-fold excess of mouse RBCs, 20 μg/ml, FIG. 6g/6h
Experimental: Similarly, MC38 tumor cells were mixed with a 15-fold excess of mouse RBCs, and then incubated with 20 μg/ml, a-mPD-L1, mSIRPα-Fc, CV1-Fc, mPD-L1-CV1, mPD-L1-mSIRPα or isotype control (human IgG1) at 4° C. for 30 min. Then the cells were washed to remove unbound proteins and incubated with an anti-hlgG Fc gamma specific PE antibody at 4° C. for 20 min. The cells were analyzed by flow cytometry (Life Technology). The gate of erythrocytes was assessed by anti-mouse RBC antibody (abcam Cat #ab106101). In FIG. 6g, serial numbers of 1, 2, 3 and 4 correspond to isotype control (human IgG1), mSIRPα-Fc, a-mPD-L1 and mPD-L1-mSIRPα. In FIG. 6h, serial numbers of 1, 2, 3 and 4 correspond to isotype control (human IgG1), CV1-Fc, a-mPD-L1 and mPD-L1-CV1.

T1 sequence (Q08722 with tags, fused parts or gaps): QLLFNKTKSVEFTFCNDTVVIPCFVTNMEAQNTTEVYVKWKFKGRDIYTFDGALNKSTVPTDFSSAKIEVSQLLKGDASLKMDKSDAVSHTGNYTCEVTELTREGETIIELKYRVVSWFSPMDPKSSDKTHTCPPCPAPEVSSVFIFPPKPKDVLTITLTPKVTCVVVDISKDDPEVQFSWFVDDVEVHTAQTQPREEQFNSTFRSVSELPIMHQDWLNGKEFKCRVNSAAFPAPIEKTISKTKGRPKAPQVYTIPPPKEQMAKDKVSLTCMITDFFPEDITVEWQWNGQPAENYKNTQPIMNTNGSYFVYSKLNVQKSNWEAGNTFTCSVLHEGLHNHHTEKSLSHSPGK

Substance: SIRPα-Fc IgG1: reference homodimer: human SIRPα fused via peptide linker to human IgG1 Fc, SEQ ID NO: 69
- binding affinity to CD47 (comparison in words) ([1]; Table 6): comparable binding affinity to CD47
- kon ([1]; association 40 seconds, 25° C.): 650000 M⁻¹ s⁻¹
- kdis ([1]; dissociation 300 seconds, 25° C.): 0.00377 s⁻¹
- preference of binding, tumor cells versus RBC [2]: bound tumor cells and RBCs at the same time
- binding to RBC (MFI) [3]: bind to RBC
- binding to RBC [4]: weaker binding to RBC than hu56di-CV1 and AB6.12 IgG1
- anemia [5]: anemia has been reported
- thrombocytopenia [6]: induced thrombocytopenia

Substance: mSIRPα-Fc: mouse SIRPα fused via linker to human IgG1-Fc, SEQ ID NO: 152, Group 18
- binding to mouse RBC [7]: weaker binding to RBC than mPD-L1-CV1
